In experiment [1] the target is RFdiffusion de novo PTH binder (picomolar). The experiment in a line: affinity purification with mass spectrometry; binder-conjugated beads capture PTH from human plasma supplemented with PTH; recovery by LC-MS/MS of the N-terminal tryptic peptide; triplicates.
Experiment [2] shares this target. In words: affinity purification with mass spectrometry; binder-conjugated magnetic beads capture the peptide from buffer; recovery by LC-MS/MS (tryptic N-terminal peptide for PTH, intact peptide for GCG); triplicates.

These results are taken from article PMC10849960.

Ends that are not written are not given here.

B1: parathyroid hormone (PTH) (peptide)
peptide: SVSEIQLMHNLGKHLNSMERVEWLRKKLQDVHNF
modifications: also: fluorescently labelled, label and position not given here
On to B1, for which the figures for the percent recovery in experiment [1] and in experiment [2] were 43% and 53%, respectively.
